Test results published in publication PMC8478157 (Nature, 2021).

Biological target: the molecule itself
Assay: native gel or EMSA

B1: recombinant eGFP–GBPL3 (natural protein, Arabidopsis thaliana, UniProt F4KG14 1-1082, looked up)
chain: MRSFFGRGGKDSPADSASPSPRSYPSTSPASSSAVTGPPRPIRLVYCDEKGKFRMDPEAVATLQLVKEPIGVVSVCGRARQGKSFILNQLLGRSNGFQVASTHKPCTKGLWLWSSPIKRTALDGTEYNLLLLDSEGIDAYDQTGTYSTQIFSLAVLLSSMFVYNQMGGIDEASLDRLSLVTQMTKHIRVKASGGTSSRSELGQFSPIFVWLLRDFYLDLVEDNRKISPRDYLEIALRPVQGSGGDIGAKNEIRDSIRALFPDRECFTLVRPLNNEKDLQRLDQISLEKLRPEFGAGLDAFTKFVFEKTRPKQLGGTVMTGPILVGITQSYLDALNNGAVPTITSSWQSVEETECRRAYDSGVEAYMAAFDQSKAPEEGALREEHEEAVRKALAIFNSNAVGNGSARKKFEDLLHKDLKKKFEDYKKNAFMEADLRCTSTIQRMEKQLRAACHASNANMDNVVKVLEARLAEYEASCHGPGKWQKLSVFLQQSLEGPIYDLTKRLIDSIAIEKNSLAMKFRSVEDAMKHLKQQLDDSERYKLEYQKRYDESNNDKKKLEDIYRERITKLQGENSSLNERCSTLVKTVESKKEEIKEWIRNYDQIVLKQKAVQEQLSSEMEVLRTRSTTSEARVAAAREQAKSAAEETKEWKRKYDYAVGEARSALQKAASVQERSGKETQLREDALREEFSITLANKDEEITEKATKLEKAEQSLTVLRSDLKVAESKLESFEVELASLRLTLSEMTDKLDSANKKALAYEKEANKLEQEKIRMEQKYRSEFQRFDEVKERCKAAEIEAKRATELADKARTDAVTSQKEKSESQRLAMERLAQIERAERQVENLERQKTDLEDELDRLRVSEMEAVSKVTILEARVEEREKEIGSLIKETNAQRAHNVKSLEKLLDEERKAHIAANRRAEALSLELQAAQAHVDNLQQELAQARLKETALDNKIRAASSSHGKRSRFEDVVDMDIGEGSDRILRTNKRARSTRGDDHGPTDEGDEDFQSHQDNGEEEEEEDYRKLTVQNLKHELTKYDCGHLLLNRGHQNKKEILALYEAHVLPKKALAREEERKKQREVTSS
- binding result: binds
